Measured values taken from PMC9482650, “Quantitative fragmentomics allow affinity mapping of interactomes” (Nature Communications, 2022).

T1: MPDZ_10, O75970
T1 sequence (O75970 1624-1722, limits assumed, looked up): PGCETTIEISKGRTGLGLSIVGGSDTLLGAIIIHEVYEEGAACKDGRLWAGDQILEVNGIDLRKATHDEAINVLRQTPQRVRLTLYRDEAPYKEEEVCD

T2: LIN7B, Q9HAP6
T2 sequence (Q9HAP6 88-185, limits assumed, looked up): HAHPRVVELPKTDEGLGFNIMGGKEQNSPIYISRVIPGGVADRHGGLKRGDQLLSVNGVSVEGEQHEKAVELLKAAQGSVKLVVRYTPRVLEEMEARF

T3: SYNJ2BP, P57105
T3 sequence (P57105 8-110, limits assumed, looked up): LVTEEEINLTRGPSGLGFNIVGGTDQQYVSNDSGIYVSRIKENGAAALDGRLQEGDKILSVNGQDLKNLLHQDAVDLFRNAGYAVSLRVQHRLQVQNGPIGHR

T4: DLG3_3, Q92796
T4 sequence (Q92796 374-475, limits assumed, looked up): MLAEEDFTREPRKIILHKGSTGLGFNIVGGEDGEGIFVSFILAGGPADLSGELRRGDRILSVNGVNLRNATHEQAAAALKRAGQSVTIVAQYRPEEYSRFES

T5: GRIP1_4, Q9Y3R0
T5 sequence (Q9Y3R0 467-571, limits assumed, looked up): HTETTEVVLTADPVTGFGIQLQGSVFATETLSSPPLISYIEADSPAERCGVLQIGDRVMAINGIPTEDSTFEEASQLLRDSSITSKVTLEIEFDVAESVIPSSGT

T6: DFNB31_2, Q9P202
T6 sequence (Q9P202 274-371, limits assumed, looked up): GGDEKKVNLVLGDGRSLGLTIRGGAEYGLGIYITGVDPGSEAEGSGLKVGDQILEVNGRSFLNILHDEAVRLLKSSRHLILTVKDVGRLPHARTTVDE

T7: GRIP1_2, Q9Y3R0
T7 sequence (Q9Y3R0 145-248, limits assumed, looked up): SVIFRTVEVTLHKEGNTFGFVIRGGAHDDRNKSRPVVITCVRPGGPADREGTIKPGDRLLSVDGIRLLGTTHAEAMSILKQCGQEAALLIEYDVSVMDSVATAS

T8: PARD3B_1, Q8TEW8
T8 sequence (Q8TEW8 196-299, limits assumed, looked up): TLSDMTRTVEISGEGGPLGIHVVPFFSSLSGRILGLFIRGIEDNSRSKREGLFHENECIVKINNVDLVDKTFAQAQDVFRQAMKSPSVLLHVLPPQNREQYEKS

T9: PTPN13_1, Q12923
T9 sequence (Q12923 1088-1188, limits assumed, looked up): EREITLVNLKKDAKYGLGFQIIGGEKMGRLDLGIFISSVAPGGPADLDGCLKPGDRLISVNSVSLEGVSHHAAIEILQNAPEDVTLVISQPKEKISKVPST

T10: HTRA3, P83110
T10 sequence (P83110 354-453, limits assumed, looked up): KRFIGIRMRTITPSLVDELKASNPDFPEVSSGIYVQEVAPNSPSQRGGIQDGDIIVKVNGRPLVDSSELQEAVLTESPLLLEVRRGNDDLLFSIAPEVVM

T11: DLG3_2, Q92796
T11 sequence (Q92796 221-321, limits assumed, looked up): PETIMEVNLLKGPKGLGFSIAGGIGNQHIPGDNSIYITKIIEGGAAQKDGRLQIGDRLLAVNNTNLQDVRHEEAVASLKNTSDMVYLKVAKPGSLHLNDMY

T12: RHPN1, Q8TCX5
T12 sequence (Q8TCX5 508-602, limits assumed, looked up): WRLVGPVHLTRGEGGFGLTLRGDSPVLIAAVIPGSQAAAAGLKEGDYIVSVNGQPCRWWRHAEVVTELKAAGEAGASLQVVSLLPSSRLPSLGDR


Assays:
Experiment in all cases: holdup assay
Design in all cases: key: below the threshold = too weak to quantify, mostly under pKd 3.1 to 4
Settings in all cases: plain residues with an end cap or a label only (N-terminal biotin on a linker: ado-ado)
NHERF4_4, Q86UT5 = molecular target: NHERF4_4, Q86UT5
Chain of NHERF4_4, Q86UT5 (Q86UT5 464-550): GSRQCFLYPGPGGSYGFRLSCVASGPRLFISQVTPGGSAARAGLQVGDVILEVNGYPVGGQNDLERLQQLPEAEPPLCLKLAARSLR

TJP1_3, Q07157 = molecular target: TJP1_3, Q07157
Chain of TJP1_3, Q07157 (Q07157 416-512): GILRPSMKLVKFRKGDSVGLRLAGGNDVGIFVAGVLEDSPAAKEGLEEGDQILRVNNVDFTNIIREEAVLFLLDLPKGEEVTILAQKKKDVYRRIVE

MPDZ_10, O75970 = molecular target: T1, MPDZ_10, O75970
LIN7B, Q9HAP6 = molecular target: T2, LIN7B, Q9HAP6
Inadl_5, Q8NI35 = molecular target: Inadl_5, Q8NI35
Chain of Inadl_5, Q8NI35 (Q8NI35 673-780): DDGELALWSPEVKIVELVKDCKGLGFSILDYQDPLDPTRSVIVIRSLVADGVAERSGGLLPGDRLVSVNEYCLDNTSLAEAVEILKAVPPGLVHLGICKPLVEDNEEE

Inadl_10, Q8NI35 = molecular target: Inadl_10, Q8NI35
Chain of Inadl_10, Q8NI35 (Q8NI35 1673-1763): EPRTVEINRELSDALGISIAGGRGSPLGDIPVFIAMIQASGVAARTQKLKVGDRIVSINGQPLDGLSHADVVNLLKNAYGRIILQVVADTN

SYNJ2BP, P57105 = molecular target: T3, SYNJ2BP, P57105
DLG3_3, Q92796 = molecular target: T4, DLG3_3, Q92796
DLG4_2, P78352 = molecular target: DLG4_2, P78352
Chain of DLG4_2, P78352 (P78352 155-259): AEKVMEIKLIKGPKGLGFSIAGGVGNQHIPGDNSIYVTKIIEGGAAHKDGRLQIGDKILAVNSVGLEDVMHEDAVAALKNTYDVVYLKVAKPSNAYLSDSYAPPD

HTRA1, Q92743 = molecular target: HTRA1, Q92743
Chain of HTRA1, Q92743 (Q92743 360-477): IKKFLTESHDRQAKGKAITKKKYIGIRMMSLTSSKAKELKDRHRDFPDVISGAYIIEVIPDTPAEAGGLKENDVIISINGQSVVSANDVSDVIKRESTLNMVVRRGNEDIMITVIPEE

IL16_1, Q14005 = molecular target: IL16_1, Q14005
Chain of IL16_1, Q14005 (Q14005 210-306): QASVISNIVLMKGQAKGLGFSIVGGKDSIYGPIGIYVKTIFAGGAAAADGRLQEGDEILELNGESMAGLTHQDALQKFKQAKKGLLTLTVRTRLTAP

Inadl_9, Q8NI35 = molecular target: Inadl_9, Q8NI35
Chain of Inadl_9, Q8NI35 (Q8NI35 1530-1615): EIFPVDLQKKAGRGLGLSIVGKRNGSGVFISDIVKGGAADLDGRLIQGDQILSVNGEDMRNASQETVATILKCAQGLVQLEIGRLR

TJP2_1, Q9UDY2 = molecular target: TJP2_1, Q9UDY2
Chain of TJP2_1, Q9UDY2 (Q9UDY2 24-128): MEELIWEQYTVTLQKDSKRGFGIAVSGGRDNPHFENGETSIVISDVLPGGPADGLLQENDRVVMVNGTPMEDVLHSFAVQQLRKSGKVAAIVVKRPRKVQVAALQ

NOS1, P29475 = molecular target: NOS1, P29475
Chain of NOS1, P29475 (P29475 9-101): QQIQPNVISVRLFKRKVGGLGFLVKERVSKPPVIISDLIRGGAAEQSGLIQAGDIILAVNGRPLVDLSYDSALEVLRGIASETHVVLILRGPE

GRIP1_4, Q9Y3R0 = molecular target: T5, GRIP1_4, Q9Y3R0
GORASP2, Q9H8Y8 = molecular target: GORASP2, Q9H8Y8
DFNB31_2, Q9P202 = molecular target: T6, DFNB31_2, Q9P202
GRIP1_2, Q9Y3R0 = molecular target: T7, GRIP1_2, Q9Y3R0
PARD3B_1, Q8TEW8 = molecular target: T8, PARD3B_1, Q8TEW8
PTPN13_1, Q12923 = molecular target: T9, PTPN13_1, Q12923
HTRA3, P83110 = molecular target: T10, HTRA3, P83110
DLG3_2, Q92796 = molecular target: T11, DLG3_2, Q92796
RHPN1, Q8TCX5 = molecular target: T12, RHPN1, Q8TCX5
DLG2_2, Q15700 = molecular target: DLG2_2, Q15700
Chain of DLG2_2, Q15700 (Q15700 189-283): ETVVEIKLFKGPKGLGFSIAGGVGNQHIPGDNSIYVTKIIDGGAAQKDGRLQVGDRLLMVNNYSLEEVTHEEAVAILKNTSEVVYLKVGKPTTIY

LAP2, Q96RT1 = molecular target: LAP2, Q96RT1
Chain of LAP2, Q96RT1 (Q96RT1 other isoform, or with tags, fused parts or gaps): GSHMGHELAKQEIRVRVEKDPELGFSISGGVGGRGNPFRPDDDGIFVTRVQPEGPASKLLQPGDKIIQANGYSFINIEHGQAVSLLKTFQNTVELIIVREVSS

Binder	pKd (NHERF4_4, Q86UT5)	pKd (TJP1_3, Q07157)	pKd (MPDZ_10, O75970)	pKd (LIN7B, Q9HAP6)	pKd (Inadl_5, Q8NI35)	pKd (Inadl_10, Q8NI35)	pKd (SYNJ2BP, P57105)	pKd (DLG3_3, Q92796)	pKd (DLG4_2, P78352)	pKd (HTRA1, Q92743)	pKd (IL16_1, Q14005)	pKd (Inadl_9, Q8NI35)	pKd (TJP2_1, Q9UDY2)	pKd (NOS1, P29475)	pKd (GRIP1_4, Q9Y3R0)	pKd (GORASP2, Q9H8Y8)	pKd (DFNB31_2, Q9P202)	pKd (GRIP1_2, Q9Y3R0)	pKd (PARD3B_1, Q8TEW8)	pKd (PTPN13_1, Q12923)	further results
GNDPDRGTSI [GRID2, O43424]	below the threshold	below the threshold	below the threshold	3.69	below the threshold	below the threshold	4.72	below the threshold	below the threshold	below the threshold	below the threshold	below the threshold	below the threshold	3.75	below the threshold	below the threshold	below the threshold	below the threshold	below the threshold	below the threshold	pKd (HTRA3, P83110): below the threshold; pKd (DLG3_2, Q92796): 4.25; pKd (RHPN1, Q8TCX5): below the threshold; pKd (DLG2_2, Q15700): below the threshold; pKd (LAP2, Q96RT1): below the threshold
DFKHTKSFII [JAM2, P57087]	below the threshold	below the threshold	below the threshold	3.63	below the threshold	below the threshold	below the threshold	below the threshold	below the threshold	4.97	below the threshold	below the threshold	below the threshold	3.75	below the threshold	5.6	below the threshold	below the threshold	4.95	3.52	pKd (HTRA3, P83110): 4.1; pKd (DLG3_2, Q92796): 4.2; pKd (RHPN1, Q8TCX5): below the threshold; pKd (DLG2_2, Q15700): below the threshold; pKd (LAP2, Q96RT1): below the threshold
EPAKETTTNV [SLC2A3, P11169]	below the threshold	below the threshold	below the threshold	below the threshold	below the threshold	below the threshold	below the threshold	below the threshold	4.21	4.04	below the threshold	below the threshold	below the threshold	below the threshold	below the threshold	3.49	below the threshold	below the threshold	below the threshold	below the threshold	pKd (HTRA3, P83110): below the threshold; pKd (DLG3_2, Q92796): 4.15; pKd (RHPN1, Q8TCX5): 4.35; pKd (DLG2_2, Q15700): 4.16; pKd (LAP2, Q96RT1): 3.64
EFKQTSSFLV [JAM1, Q9Y624]	below the threshold	below the threshold	below the threshold	3.88	3.53	below the threshold	below the threshold	below the threshold	3.47	5.15	below the threshold	3.86	below the threshold	3.97	below the threshold	4.83	below the threshold	below the threshold	4.72	below the threshold	pKd (HTRA3, P83110): 4.16; pKd (DLG3_2, Q92796): 4.2; pKd (RHPN1, Q8TCX5): below the threshold; pKd (DLG2_2, Q15700): below the threshold; pKd (LAP2, Q96RT1): below the threshold
SGDGKTSVWI [GJC1, P36383]	4.24	4.11	below the threshold	3.74	3.55	3.54	below the threshold	below the threshold	3.51	4.93	below the threshold	3.85	4.82	4.1	below the threshold	5.03	below the threshold	below the threshold	4.77	below the threshold	pKd (HTRA3, P83110): 5.8; pKd (DLG3_2, Q92796): 4.16; pKd (RHPN1, Q8TCX5): below the threshold; pKd (DLG2_2, Q15700): below the threshold; pKd (LAP2, Q96RT1): 3.81
PGKKPEDSRV [SLCO2B1, O94956]	below the threshold	below the threshold	below the threshold	below the threshold	below the threshold	below the threshold	4.15	below the threshold	3.91	below the threshold	3.84	below the threshold	below the threshold	below the threshold	below the threshold	below the threshold	below the threshold	below the threshold	below the threshold	below the threshold	pKd (HTRA3, P83110): below the threshold; pKd (DLG3_2, Q92796): below the threshold; pKd (RHPN1, Q8TCX5): 3.85; pKd (DLG2_2, Q15700): 3.5; pKd (LAP2, Q96RT1): 3.52
